Experiment in all cases: cross-linking; 293T cells coexpressing FLAG- and HA-tagged Gag and V1B-MS2 viral RNA treated with 1 mM EGS, 30 min, room temperature; membrane flotation; cytoplasmic fraction (10th fraction) analysed by anti-FLAG western blot
Assay [1] addresses HIV-1 G2A-Gag, FLAG- and HA-tagged (HIV-1).
For assay [2], the target named is HIV-1 Gag, FLAG- and HA-tagged (wild type) (HIV-1).
Assay [3] deals with HIV-1 Gag-delCTD, FLAG- and HA-tagged (lacking the C-terminal domain of capsid) (HIV-1).

By stoichiometry N is commonly meant a count of units in the complex or per binding partner.

In turn, “HIV-1 G2A-Gag, FLAG- and HA-tagged (natural protein)” showed a stoichiometry N in assay [1] of 2.

As for “HIV-1 Gag, FLAG- and HA-tagged (wild type) (natural protein)”, the stoichiometry N in assay [2] was determined as 2.

Turning to “HIV-1 Gag-delCTD, FLAG- and HA-tagged (lacking the C-terminal domain of capsid) (natural protein)”, in assay [3], the stoichiometry N came out at 2.

The values above are taken from publication PMC2987827.
